Measured values reported in patent US20260125472A1 (HEFEI TG IMMUNOPHARMA, published 2026).
Read-outs that look alike come from different tables or passages of the source.

Assays:
[1] = target: T1, CD3 on CD8 T cells (Homo sapiens (Human), UniProt P07766 23-207); assay: flow cytometry, CD8 T cells in PBMCs, binding ratio % [panel A]
T1 construct: Native CD3 complex on CD8 T cells among PBMCs; also called T cells (PBMCs gated with anti-human CD8 antibody)
Procedure: PBMCs were diluted with PBS to 2×10⁶/mL and added to a 1.5 ml EP tube at a volume of 100 μL/tube, 10 μL/tube of goat serum was added thereto and incubated at 4° C. for 30 min for blocking. […] 1 mL of PBS was added to the EP tube, followed by centrifugation at 3500 rpm for 5 min at 4° C. The supernatant was discarded, and the cells were washed again with PBS. After centrifugation, the supernatant was discarded, and the cells were resuspended with 100 μl/tube PBS. 1 μl/tube Alexa-647-labeled goat anti-human secondary antibody (purchased from Jackson lab) and 0.5 μl/tube PerCP-Cy5.5-labeled anti-human CD8 antibody were added and incubated at 4° C. in the dark for 30 min. The cells were washed twice with PBS, and the supernatant was discarded after centrifugation. The cells were resuspended with […] of PBS and assayed using the flow cytometry.

[2] = target: T2, CD3E&D protein (UniProt P04234 22-105); assay: SPR (Biacore 8K), antibody on CM5 chip, CD3 E&D antigen as analyte; parameters: Fold change: reference not given here
T2 construct: Purchased from Acro; also called CD3 E&D antigens; CD3E&D antigen protein
T2 sequence (chain, as listed by the source limits assumed, chain 1 of 2): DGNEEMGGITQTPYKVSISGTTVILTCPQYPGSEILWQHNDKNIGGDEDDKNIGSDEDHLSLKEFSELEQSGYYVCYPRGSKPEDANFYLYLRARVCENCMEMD
T2 sequence (P04234 22-105 limits assumed, chain 2 of 2): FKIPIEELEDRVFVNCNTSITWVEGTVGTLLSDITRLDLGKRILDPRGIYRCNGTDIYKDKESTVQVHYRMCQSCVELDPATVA
Procedure: In a Biacore 8K (Cytiva) system, the antibody was diluted to 10 μg/mL in HBS-EP running buffer and coupled to a CM5 chip (Cytiva) at a flow rate of 10 μL/min.

[3] = target: T2, CD3E&D protein; assay: ELISA, coated CD3E&D protein, OD450 [panel C]
Procedure: In this example, the binding properties of the parental antibody Cross3 and the CD3 affinity-reduced antibody (the production method and the amino acid sequences of the heavy and light chains were shown in Example 1) were detected by ELISA. The CD3E&D protein was coated onto a 96-well plate by the inventors, and the strength of the signal after the addition of the antibody was used to determine the binding properties of the antibody and CD3E&D.
CD3E&D protein (purchased from Acro) was diluted to 2 μg/ml with PBS buffer, added to a 96-well plate at a volume of 100 μL/well, and placed at 4° C. overnight. The PBS buffer in the 96-well plate was aspirated, and the plate was washed 6 times with PBST (pH 7.2 PBS containing 0.1% Tween 20) buffer. Then, 200 μL/well PBS/10% BSA was added and incubated at 37° C. for 2 h for blocking. The blocking solution was removed, and the plate was washed six times with PBST. Then, the to-be-tested antibodies serially diluted with PBST/0.05% BSA, Cross3, Cross303, Cross307, Cross308, Cross309, Cross310, Cross311, Cross312, Cross313, Cross314, Cross316, Cross317, Cross318, Cross323, Cross325, Cross326, and control IgG1 (purchased from Bio-Tech) were added at 100 μL/well, and incubated at 37° C. for 1 h. The reaction system was removed, and the plate was washed 6 times with PBST. Then, the cells were incubated at 37° C. for 1 h with HRP (horseradish peroxidase)-labeled anti-human secondary antibody (Fab specific) (purchased from Sigma) serially diluted with PBST/0.05% BSA at 100 μL/well. The plate was washed six times with PBST, TMB (tetramethylbenzidine) was added at 80 μL/well and incubated at room temperature for 3 min. 4 M sulfuric acid was added at 80 μL/well to terminate the reaction. The absorbance was read at 450 nm using a microplate reader.

[4] = target: T3, PDL1 on A-375 melanoma cells, HCT-15 colorectal cancer cells and A549 lung cancer cells (UniProt Q9NZQ7 19-290, limits assumed); assay: flow cytometry, A549 cells, MFI [panel B]
T3 construct: whole, on cells
T3 sequence (Q9NZQ7 19-290 limits assumed): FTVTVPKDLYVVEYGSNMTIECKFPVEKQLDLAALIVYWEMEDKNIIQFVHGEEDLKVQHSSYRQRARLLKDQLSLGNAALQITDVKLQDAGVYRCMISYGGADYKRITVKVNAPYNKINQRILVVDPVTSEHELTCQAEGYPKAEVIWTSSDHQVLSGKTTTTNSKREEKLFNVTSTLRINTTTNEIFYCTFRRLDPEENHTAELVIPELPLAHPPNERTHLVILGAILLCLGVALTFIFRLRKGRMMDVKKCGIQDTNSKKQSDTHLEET
Procedure: (2) The tumor cells were diluted to 2×10⁶/ml with PBS and added to a 1.5 ml EP tube at a volume of 100 μl/tube, and goat serum was added thereto at 10 μl/tube. The cells were blocked at 4° C. for 30 min. The serially diluted bispecific antibodies, Cross3×Trop2, Cross303×Trop2, Cross307×Trop2, Cross308×Trop2, Cross309×Trop2, Cross310×Trop2, Cross311×Trop2, Cross312×Trop2, Cross313×Trop2, Cross314×Trop2, Cross316×Trop2, Cross317×Trop2, Cross318×Trop2, Cross323×Trop2, Cross325×Trop2, Cross326×Trop2, and Cross3×PDL1, Cross303×PDL1, Cross307×PDL1, Cross308×PDL1, Cross309×PDL1, Cross310×PDL1, Cross311×PDL1, Cross312×PDL1, Cross313×PDL1, Cross314×PDL1, Cross316×PDL1, Cross317×PDL1, Cross318×PDL1, Cross323×PDL1, Cross325×PDL1, Cross326×PDL1, and control hIgG1LALA (purchased from Bio-Tech) were added and incubated at 4° C. for 30 min. 1 ml of PBS was added to the EP tube, followed by centrifugation at 3500 rpm for 5 min at 4° C. The supernatant was discarded, and the cells were washed again with PBS. After centrifugation, the supernatant was completely discarded, and the cells were resuspended with PBS at 100 μl/tube. Alexa-647-labeled goat anti-human IgG secondary antibody (purchased from Jackson lab) was added at 1 μl/tube and incubated at 4° C. in the dark for 30 min. The cells were washed twice with PBS, and the supernatant was completely discarded after centrifugation. The cells were resuspended with PBS at 200 μl/tube and assay was performed using the flow cytometry.

[5] = target: T1, CD3 on CD8 T cells; assay: flow cytometry, CD8 T cells in PBMCs, binding ratio % [panel A]; remark: listed apart in the source
Procedure: (1) PBMCs were diluted to 2×10⁶/ml with PBS and added to a 1.5 ml EP tube at 100 μl/tube, goat serum was added thereto at 10 μl/tube. The cells were blocked at 4° C. for 30 min. The serially diluted bispecific antibodies, Cross3×Trop2, Cross303×Trop2, Cross307×Trop2, Cross308×Trop2, Cross309×Trop2, Cross310×Trop2, Cross311×Trop2, Cross312×Trop2, Cross313×Trop2, Cross314×Trop2, Cross316×Trop2, Cross317×Trop2, Cross318×Trop2, Cross323×Trop2, Cross325×Trop2, Cross326×Trop2, Cross3×PDL1, Cross313×PDL1, Cross316×PDL1, Cross325×PDL1, and control hIgG1LALA (purchased from Bio-Tech) were added and incubated at 4° C. for 30 min. 1 ml of PBS was added to the EP tube, followed by centrifugation at 3500 rpm for 5 min at 4° C. The supernatant was discarded, and the system was washed again with PBS. After centrifugation, the supernatant was discarded, and the cells were resuspended with PBS at 100 μl/tube. 1 μl/tube Alexa-647-labeled goat anti-human IgG secondary antibody (purchased from Jackson lab) and 0.5 μl/tube PerCP-Cy5.5-labeled anti-human CD8 antibody were added and incubated at 4° C. in the dark for 30 min. The cells were washed twice with PBS. After centrifugation, the supernatant was discarded. The cells were resuspended with 200 μl/tube of PBS and assay is performed by flow cytometry.

[6] = target: T4, PDL1 protein (UniProt Q9NZQ7 19-238); assay: ELISA, coated PDL1 protein, OD450 [panel A]
T4 construct: Bought recombinant protein
T4 sequence (Q9NZQ7 19-238 limits assumed): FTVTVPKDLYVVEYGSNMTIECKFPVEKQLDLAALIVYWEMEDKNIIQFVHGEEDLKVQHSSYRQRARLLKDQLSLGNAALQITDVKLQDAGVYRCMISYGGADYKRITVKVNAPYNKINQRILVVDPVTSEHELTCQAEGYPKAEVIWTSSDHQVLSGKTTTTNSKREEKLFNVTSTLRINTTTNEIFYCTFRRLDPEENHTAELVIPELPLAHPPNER
Procedure: (3) PDL1 protein (purchased from Acro) was diluted to 2 μg/ml with PBS buffer, added to a 96-well plate at a volume of 100 μL/well, and placed at 4° C. overnight. The PBS buffer in the 96-well plate was aspirated, and the plate was washed 6 times with PBST (pH 7.2 PBS containing 0.10% Tween 20) buffer. Then, PBS/10% BSA was added at 200 μL/well and incubated at 37° C. for 2 h for blocking. The blocking solution was removed, and the plate was washed six times with PBST. Then, the to-be-tested bispecific antibodies serially diluted with PBST/0.05% BSA, Cross3×PDL1, Cross303×PDL1, Cross307×PDL1, Cross308×PDL1, Cross309×PDL1, Cross310×PDL1, Cross311×PDL1, Cross312×PDL1, Cross313×PDL1, Cross314×PDL1, Cross316×PDL1, Cross317×PDL1, Cross318×PDL1, Cross323×PDL1, Cross325×PDL1, Cross326×PDL1, and control IgG1LALA (purchased from Bio-Tech) were added at 100 μL/well, and incubated at 37° C. for 1 h. The reaction system was removed, and the plate was washed 6 times with PBST. Then, the cells were incubated at 37° C. for 1 h with HRP (horseradish peroxidase)-labeled anti-human secondary antibody (Fab specific) (purchased from Sigma) serially diluted with PBST/0.05% BSA at 100 μL/well. After the plate was washed six times with PBST, TMB (tetramethylbenzidine) was added at 80 μL/well and incubated at room temperature for 3 min. 4 M sulfuric acid was added at 80 μL/well to terminate the reaction. The absorbance was read at 450 nm using a microplate reader.

T1 sequence (P07766 23-207 limits assumed): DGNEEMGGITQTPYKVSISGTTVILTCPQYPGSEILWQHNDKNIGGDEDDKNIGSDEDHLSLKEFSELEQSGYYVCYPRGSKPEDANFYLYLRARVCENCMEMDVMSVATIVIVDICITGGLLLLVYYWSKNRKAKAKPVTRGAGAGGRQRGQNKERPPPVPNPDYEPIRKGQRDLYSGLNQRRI

Row | Binder | EC50 (read off the curve) [1] [µg/mL] | Fold change [2] | Kd [2] [nM] | koff [2] [s⁻¹] | kon [2] [M⁻¹ s⁻¹] | EC50 (read off the curve) [3] [µg/mL] | EC50 (read off the curve) [4] [µg/mL] | EC50 (read off the curve) [5] [µg/mL] | EC50 (read off the curve) [6] [µg/mL]
1 | Cross323 (antibody, human IgG1, kappa, V domains shown) VH: EVQLLESGGGLVQPGGSLKLSCAASGFTFNTYAMNWVRQAPGKGLEWVARIRSKYNNYATYYADSVKDRFTISRDDSKNTAYLQMNNLKTEDTAVYYCVRHGNFGNSYVSWFAYWGQGTLVTVSS VL: ELVVTQEPSLTVSPGGTVTLTCRSSTGAVTTSNYANWVQQKPGQAPRGLIGGTNKRAPGTPARFSGSLLGGKAALTLSGVQPEDEAEYYCALWYPNLWVFGGGTKLTVLR | ~0.3 | 19.9 | 3.28 | 0.0094 | 2.86e+06 | ~0.03 | – | – | –
2 | Cross325 (antibody, human IgG1, kappa, V domains shown) VH: EVQLLESGGGLVQPGGSLKLSCAASGFTFNTYAMNWVRQAPGKGLEWVARIRSKYNNYATYYADSVKDRFTISRDDSKNTAYLQMNNLKTEDTAVYYCVRHGNFGNSYVSWFAYWGQGTLVTVSS VL: ELVVTQEPSLTVSPGGTVTLTCRSSTGAVTTSNYANWVQQKPGQAPRGLIGGTNKRAPGTPARFSGSLLGGKAALTLSGVQPEDEAEYYCALWYSNDWVFGGGTKLTVLR | ~0.3 | 15.6 | 2.57 | 0.00366 | 1.42e+06 | ~0.03 | – | – | –
3 | Cross326 (antibody, human IgG1, kappa, V domains shown) VH: EVQLLESGGGLVQPGGSLKLSCAASGFTFNTYAMNWVRQAPGKGLEWVARIRSKYNNYATYYADSVKDRFTISRDDSKNTAYLQMNNLKTEDTAVYYCVRHGNFGNSYVSWFAYWGQGTLVTVSS VL: ELVVTQEPSLTVSPGGTVTLTCRSSTGAVTTSNYANWVQQKPGQAPRGLIGGTNKRAPGTPARFSGSLLGGKAALTLSGVQPEDEAEYYCALWYSNPWVFGGGTKLTVLR | – | 16.5 | 2.73 | 0.0386 | 1.41e+07 | ~0.03 | – | – | –
4 | Cross313×PDL1 (bispecific antibody, human IgG1, kappa, L234A L235A) scFv: not shown heavy: QVQLVQSGAEVKKPGASVKVSCKASGYSFTGYYMHWVRQAPGQGLEWIGRINPYNGATTYSQNFKDRATMTVDTSISTAYMELSRLRSDDTAVYYCVPTGMGYFLMDYWGQGTLVTVSSASTKGPSVFPLAPSSKSTSGGTAALGCLVKDYFPEPVTVSWNSGALTSGVHTFPAVLQSSGLYSLSSVVTVPSSSLGTQTYICNVNHKPSNTKVDKKVEPKSCDKTHTCPPCPAPEAAGGPSVFLFPPKPKDTLMISRTPEVTCVVVDVSHEDPEVKFNWYVDGVEVHNAKTKPREEQYNSTYRVVSVLTVLHQDWLNGKEYKCKVSNKALPAPIEKTISKAKGQPREPQVCTLPPSREEMTKNQVSLSCAVKGFYPSDIAVEWESNGQPENNYKTTPPVLDSDGSFFLVSKLTVDKSRWQQGNVFSCSVMHEALHNHYTQKSLSLSPGK light: DIQLTQSPSFLSASVGDRVTITCKASQDVGSAVVWYQQKPGKAPKLLIYWASTRHTGVPSRFSGSGSGTEFTLTISSLQPEDFATYFCQQFTSYPTFGQGTKLEIKRTVAAPSVFIFPPSDEQLKSGTASVVCLLNNFYPREAKVQWKVDNALQSGNSQESVTEQDSKDSTYSLSSTLTLSKADYEKHKVYACEVTHQGLSSPVTKSFNRGEC | – | – | – | – | – | – | ~1 | ~2 | ~0.2
